# T1: Cdc1 (fission yeast DNA polymerase delta B-subunit), wild type (Schizosaccharomyces pombe, UniProt P87324 1-462)
# T1 construct: DNA polymerase delta B-subunit Cdc1, S. pombe; cdc1+ cDNA on a 1.5 kb BamHI fragment from pBTM116-Cdc1, ORF 1386 bp; also called WT; LexA-Cdc1; source: yeast two-hybrid fusion, in S. cerevisiae CTY10-5d
# T1 sequence (looked up): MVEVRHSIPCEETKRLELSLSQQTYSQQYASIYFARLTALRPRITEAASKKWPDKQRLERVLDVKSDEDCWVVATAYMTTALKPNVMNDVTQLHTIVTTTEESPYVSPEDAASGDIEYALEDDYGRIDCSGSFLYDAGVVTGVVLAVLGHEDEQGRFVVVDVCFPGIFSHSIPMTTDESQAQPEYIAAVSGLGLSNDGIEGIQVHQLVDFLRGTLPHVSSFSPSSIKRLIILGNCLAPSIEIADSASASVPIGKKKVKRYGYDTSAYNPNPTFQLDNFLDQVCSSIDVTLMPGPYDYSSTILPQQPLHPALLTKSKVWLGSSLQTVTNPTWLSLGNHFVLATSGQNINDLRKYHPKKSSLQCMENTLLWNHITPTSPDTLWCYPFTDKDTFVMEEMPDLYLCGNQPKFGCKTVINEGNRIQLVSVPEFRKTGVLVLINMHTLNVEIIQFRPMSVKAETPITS
# T2: Cdc1-J12 (Schizosaccharomyces pombe, UniProt P87324 1-462, Ser-GlyValProHisSer-Ile)
# T2 construct: Cdc1, S. pombe, with a pentapeptide inserted after residue 7; source: yeast two-hybrid fusion, in S. cerevisiae CTY10-5d
# T2 sequence (looked up): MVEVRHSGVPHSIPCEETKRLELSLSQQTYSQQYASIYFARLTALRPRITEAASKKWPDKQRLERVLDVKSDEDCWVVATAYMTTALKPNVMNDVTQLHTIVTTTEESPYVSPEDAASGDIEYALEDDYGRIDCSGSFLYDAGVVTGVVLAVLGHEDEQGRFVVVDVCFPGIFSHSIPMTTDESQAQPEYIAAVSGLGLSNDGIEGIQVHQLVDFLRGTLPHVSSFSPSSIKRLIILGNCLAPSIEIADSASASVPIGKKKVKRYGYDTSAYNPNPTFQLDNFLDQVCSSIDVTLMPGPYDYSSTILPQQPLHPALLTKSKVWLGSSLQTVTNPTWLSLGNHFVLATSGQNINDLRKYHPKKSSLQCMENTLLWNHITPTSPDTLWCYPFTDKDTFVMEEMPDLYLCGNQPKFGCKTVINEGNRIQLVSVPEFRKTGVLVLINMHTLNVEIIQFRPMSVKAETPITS
# T3: Cdc1-J4 (Schizosaccharomyces pombe, UniProt P87324 1-462, Ile-GlyValProArgIle-Asp)
# T3 construct: Cdc1, S. pombe, with a pentapeptide inserted after residue 127; also called J5; J13; source: yeast two-hybrid fusion, in S. cerevisiae CTY10-5d
# T3 sequence (looked up): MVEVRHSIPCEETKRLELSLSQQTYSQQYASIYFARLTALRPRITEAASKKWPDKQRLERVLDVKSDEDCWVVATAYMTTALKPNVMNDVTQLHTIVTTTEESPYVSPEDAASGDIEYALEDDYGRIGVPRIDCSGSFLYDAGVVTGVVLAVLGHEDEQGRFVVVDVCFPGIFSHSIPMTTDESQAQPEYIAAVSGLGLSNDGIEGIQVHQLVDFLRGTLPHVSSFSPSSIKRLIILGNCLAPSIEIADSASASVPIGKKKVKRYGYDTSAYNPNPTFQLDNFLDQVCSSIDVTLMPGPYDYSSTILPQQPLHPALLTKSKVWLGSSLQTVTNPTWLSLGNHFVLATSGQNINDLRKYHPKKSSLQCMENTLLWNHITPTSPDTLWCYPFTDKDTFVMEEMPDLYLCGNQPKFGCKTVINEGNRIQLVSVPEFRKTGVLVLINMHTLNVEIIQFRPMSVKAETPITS
# T4: Cdc1-J22 (Schizosaccharomyces pombe, UniProt P87324 1-462, Arg-GlyValProLeuArg-Gly)
# T4 construct: Cdc1, S. pombe, with a pentapeptide inserted after residue 212; source: yeast two-hybrid fusion, in S. cerevisiae CTY10-5d
# T4 sequence (looked up): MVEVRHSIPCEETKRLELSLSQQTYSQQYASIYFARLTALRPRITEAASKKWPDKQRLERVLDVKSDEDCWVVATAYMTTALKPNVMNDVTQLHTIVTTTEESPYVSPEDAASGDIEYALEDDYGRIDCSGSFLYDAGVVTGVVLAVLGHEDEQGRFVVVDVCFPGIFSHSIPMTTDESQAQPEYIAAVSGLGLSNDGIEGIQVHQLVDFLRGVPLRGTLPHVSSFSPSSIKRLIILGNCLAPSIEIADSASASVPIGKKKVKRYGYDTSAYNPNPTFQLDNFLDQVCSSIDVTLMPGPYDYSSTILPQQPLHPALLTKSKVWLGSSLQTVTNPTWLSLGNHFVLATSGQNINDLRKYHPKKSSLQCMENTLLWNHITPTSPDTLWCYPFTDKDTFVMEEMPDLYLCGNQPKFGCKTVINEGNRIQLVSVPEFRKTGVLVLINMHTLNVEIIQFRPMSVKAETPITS
# B1: Cdc27 (fission yeast DNA polymerase delta C-subunit) (natural protein, Schizosaccharomyces pombe, UniProt P30261 1-372, looked up)
# chain: MEEWRNFLDIKVINESSLVTVDNLSLQLDISSEKAQEYLNMFYQGNDFLYPIYLIHGQPIDDEINLEIDEESQPISNFPVLQYILCDKSSLQEKQSRLKSGYKTVIFALSSAPLSDFDELLPAVYEIREKDVLYKKEDADKYGFIFNENSVPRVLKKAPSTHSPQLSVPSKTSTIDKTDTRSTEKTKGKDIFSNARNQKGNSSRKNKKAPLENHKEKEPLLPKEEKLSEQAKRERDDLKNIMQLEDESVSTTSVHDSEDDNLDSNNFQLEIGTEAKSAAPDEPQEIIKSVSGGKRRGKRKVKKYATTKDEEGFLVTKEEEVWESFSEDENISTGTSNVVRNKPTTVNIATKKKNTAQSKPQQKSIMSFFGKK
# notes: DNA polymerase delta C-subunit Cdc27, S. pombe; prey plasmid pGAD2F-Cdc27; also called pGAD2F-Cdc27; source: yeast two-hybrid fusion, in S. cerevisiae CTY10-5d
# Tests used:
# Test in all cases: two-hybrid; LexA-Cdc1 bait (pBTM116 or pBTM116BN) with Gal4 activation domain-Cdc27 prey (pGAD2F-Cdc27) in S. cerevisiae CTY10-5d; ONPG liquid culture beta-galactosidase assay, mean of triplicates, as percent of wild-type Cdc1
# Details in all cases: partners not purified
# [1] = target: T1, Cdc1 (fission yeast DNA polymerase …)
# Cdc1-J12 = target: T2, Cdc1-J12
# Cdc1-J4 = target: T3, Cdc1-J4
# Cdc1-J22 = target: T4, Cdc1-J22
binder,measurement,setting,value
B1,"two-hybrid beta-galactosidase activity, % of wild-type Cdc1",[1],100%
same,"two-hybrid beta-galactosidase activity, % of wild-type Cdc1",Cdc1-J12,59%
same,"two-hybrid beta-galactosidase activity, % of wild-type Cdc1",Cdc1-J4,< 1%
same,"two-hybrid beta-galactosidase activity, % of wild-type Cdc1",Cdc1-J22,7%
